In the DeepSol protein solubility set:

Assay: soluble on expression in E. coli; label from the status in PepcDB or PDB records

Row | Sequence | soluble on expression in E. coli
1 | MGSDKIHHHHHHMHLTKTWLAQLPLTDIQQVQPVSGGDINAAFQIITRHHQYFLKVQPHNDVTFFDHEVAGLRLLGAVTKTPRVIASGTIATDGYLLLDWLATGTGSQSALGAAVAKVHHQHHAQFGLDHDFTAGKLPKINHWQTDWATFYTQQRLDVLVNLAKEHHLWSETREMHYHRLRQQLLQDSHMHTVKPSLLHGDLWSGNYLFDTTGTPVLIDPDVFYGDREMDLAMTTIFGGFDTDFYQAYQAAYPVAPGMQDRLPSYQLYYLLAHLNLFGETYGPAVDRILMQY | not soluble
2 | MGSDKIHHHHHHMHVGRENSSFQICNSSQDIRKSDILDAMSIRFRQLQAFHATFETGTVTGAATLLGISQPGISNLLAQLERETRFKLFERVKGRLIPTPEAGVLYQEVDTVVRGLDHVGQAVTDLQNKQGGQLQVASQHAMSFGFMPKLIAQFAKTRPDMSISFQSQYSSKVQEWVMSGLFEIGVCETPQLYDALDTHPFQVEMQLTLHPDNPLARHDILTPELCGAEPFIVMGPDHMTHRRTREAFHTAGVPWNTRVHTHLFKNMLSFVQEDMGVAILDPFLLDHDESGSFVTRPFAPAIHMDMMVITSATRPLSTLALDFLDLLLTGIAQSDRRRVSPSNAAPGRPPLPMAAR | not soluble
3 | MGSDKIHHHHHHMHYNDQGADFKYLIVNERDKRFGLSVTTVGFQAIRAGSVYPPRNHPDAYYFTAQKGRVLHEYQLVYITKGRGTFASDTTPSVDISKGQILFLFPGQWHTYAPLQKTGWNEYYIGFEGPIIDNLVKNSFISKESQILDIGINEELASLFARALEVAEADKTAAQQYLSGIVLHIMGAVLAISQNKRYEVDNAAQKIESAKIIMHENVYKDIDPEELAMKLGISYSWFRKVFKEYTGYAPAKYFQELKLRKAKQLLIESSMSVKEICYELNYTSTEHFFSVFKKRTNFTPTEYRNFGRGGKEKENENE | not soluble
4 | MGSDKIHHHHHHMIATTIAMDFCQTVTPSEIATVIDSYARGWFLMADEDSSDLGWYRSRDRCLIPLDNRFRYPRSLRRVLNQQRFEFAISRDFLGTIAGCADRPSTWISDELAEIYQQLQRYGWALSWEAWQGDRLVGGILGVAIGSLFIGESMFYHEPEASKAALVTLVQALQQGGWQVFDVQLTNPHLERFGSFCVSDRQYSAQIQTAIARPAKLVTPTGDRFASQPHSSAASDHG | not soluble
5 | MGSDKIHHHHHHMIEDNMKLKTGIPALDRILGGGFEKGCNIALVGGMDNDHILLTHQLTNAFLSSGKKVLLVELRQDPASLIKWLSQYNINYEEYLEDGDLKILDGFSNLYSPASISGPDVLPNPLDLGITTAIIRDNVSKEKYDILVFDDITSLYALQTDYKAYVRVIVRLTNSIRKLGASSLVAINSDVLSIQDLSMILMPFEYLIEIREGMIRFKRSFSFINVPGVPYVKTNKGIIPIEDVLKDAVSIRDSLVLTSDGVLKLGEGRVQLIGETSERSLIEFVYRFLGPEKGREFLYGWGRHEVEHLEIPKIESVEEIKEILEEAFEVTRSTGGGILRIVEATKDIIIVEGKNLFPHIRNFPYPAHVHYAGYMAKLLEKATGERWEGEEIKCESQTNDKCIFILRRV | not soluble
6 | MGSDKIHHHHHHMIEELAREIVKRFPRNHKETDPFRVLISTVLSQRTRDENTEKASKKLFEVYRTPQELAKAKPEDLYDLIKESGMYRQKAERIVEISRILVEKYGGRVPDSLEELLKLPGVGRKTANIVLWVGFKKPALAVDTHVHRISNRLGWVKTRTPEETEEALKKLLPEDLWGPINGSMVEFGRRICKPQNPLCEECFLKNHCEFYRRRGKGEVRNRTER | not soluble
7 | MGSDKIHHHHHHMIEQQMPFRRILLTSDTFQILKEGQIISTFNKCGIFYCQRGSVEVSLEGCHYHIKPGDVYIYMASTLVHLLHKSEDAEGIMVEVDFYYILPIVNKVINVESQLFMRKNPCVSLSGEQCAHFEYLLNNLWDRINAEDCQKENVQYQHLKLELIKSMGQTICYEILNMYFTNQPLQPLQQGKKDVVFQNFMLSLFRFYRKERDVSFYARMQHITPRYFSAIIKEKTGDSALQWIVRMVITEAKQLLEESDLSIKEIADQLNFPTQSFFGKYFKQYVGVSPKEYRNNAATTRIKR | not soluble
8 | MGSDKIHHHHHHMIFIPPFEQGKLLRRYKRFLADVLLDDGTEITIHCPNTGSMRNCLFPGERVWFSTSDNPKRKYAHTWEQAASDEGHIIGINTGRANALAAEAIEAGVISELTGYDRLRREVKYGSENSRIDLLLESEDKPACYIEVKSCTLLEQGQGYFPDAVTTRGQKHLRELMEMVKQGHRAVLLFVVQHTGITTVAAARHIDPEYAELLTQAHQAGVEILAYSCELSPSAAKLIKSCPVKL | not soluble
9 | MGSDKIHHHHHHMIGDMNELLLKSVEVLPPLPDTVSKLRKYVSEANSNIETMKVAEIISSDPLMTAKLLQLANSPYYGFTREITTINQVITLLGVGNIINIVMADSIRDNFKIDVSPYGLNTQNFLKTCNEEATFIANWLNDEDKKLSHLLVPCAMLLRLGIVIFSNFLIQNHKDKDFLAFLNKNENLALAENEFLGVDHISFLGFLLHRWNFDDVLIESICFVRTPHAAREKVKKSAYALAITDHLFAPHDGSSPFNAKAAVALLKEAKTQGINFDLNNLLSKLPNKAKENLNKED | soluble
10 | MGSDKIHHHHHHMIGHVPVGSSAPVVVQSMTNTDTADAAATVRQVYELWRAGSEIVRITVNSPEAAAQVGAIRRQLDDLGCNVPLVGDFHFNGHRLLAQYPDCAEALAKYRINPGNVGKGSKRDEQFSAMIKAAIDYNKPVRIGVNWGSLDQAKMARMMDENSKRAAPLAADALMREMLIQSALENAAAAEELGLPSDRIIISCKVSAVQDLIKVYRDLGSRCDYPLHLGLTEAGMGSKGIVASTAALSVLLQDGIGDTIRVSLTPEPGESRTKEVVVAQEILQTMGIRSFTPLVTACPGCGRTTSTFFQELAQKIQHYLRDQMPVWRSQYPGVENMSVAVMGCVVNGPGESKLANIGISLPGTGEVPVAPVYVDGEKTVTLKGERIADDFKVIVEEYVRVNYAEGGRLRQQGTGTGLKTIPLKAI | not soluble
11 | MGSDKIHHHHHHMIGYGLPMPNQAHFSASFARPSTPAAKCMHHIRLGQQLIRNELVEATGLSQPTVTRAVTALMQAGLVRERPDLTLSSGPGRPNIPLELAPSPWIHAGVAIGTKSSYVALFDTKGRTLRDAMLEISAADLDPDTFIEHLIAGVNRLTTGLDLPLVGIGVATSGKVTNAGVVTASNLGWDGVDIAGRLNYQFSVPATVASAIPAIAASELQASPLPHPEQPTPITLTFYADDSVGAAYSNDLGVHVIGPLATTRGSGLDTLGMAAEDALSTQGFLSRVSDQGIFANSLGELVTIAKDNETAREFLNDRATLLAHTAAEAAETVKPSTLVLSGSAFSEDPQGRSVFASQLKKEYDADIELRLIPTHRENVRAAARAVALDRLLNEPLTLVP | not soluble
12 | MGSDKIHHHHHHMIHKLADVQSQNIGDNTKVWQFCVILAGAVIGRNCNICANSLIENDVVIGDNVTIKSGVQIWDGIHIQDDVFIGPNVTFTNDKQPRSKIYPDEYLKTIVKKGASIGANSTILPGILIGENAMVGAGAVITKNVPDNAIVIGNPGRITGYVEANTGVIMPSNNFELKLQMSKVKGVSLHKFHLVNDLRGNLSVGEFEKDIPFTPKRYFTVFGVPNKEVRGEHAHKECKQFLICVSGNCSVLVDDGENREEYVLDSIDKGIYLPPMTWGVQYKYSKDAVLLVFASHYYDSDDYIRDYSTFKQMRQN | not soluble
13 | MGSDKIHHHHHHMIIKNAKIYGDSLQDIEIKEGKITNIDSNLQGEEILDAKGMTLLPSFVDLCVSLKNDKFSLANLELLENECLKGGISSIVLRDCMDFDEESFALFLQNLAQRKMQIFSSVRVKDANGKLKNLATLLNKGACALELDSSLDANTLKVSSQYAFMKDSPIFVRCYDKDFDDNGVMNDCEMSFELGLIGMSKIAETSQIAKMKELAKFYKNKVIFDLLSLKDSLVLLDEKDLKLVSIHHLIKDDSACEDFNTAAKLMPPLRSKEDVLALREVLKEGKISFLTSLHSAKSISLKDLAFDEAAFGIHSVCEFISLCYTFLIKEGFLNWQELCRFTSKNPSEFLGLNSGVIEVGKEANLVLFDENEEIFAPKSSLYSEDKLFGKIKMHIIKGKNILEK | not soluble
14 | MGSDKIHHHHHHMIIMIPFKSMRDQAGLNRQHIFDLARLPPDLLAPLDLGQHERQLILLGHAGRLLWERVQKHATDPVHPIDSYTIGVVEQWAALALPHTRIRFVYPRGLPANRHVGLQRLGTLAGWHHPSPFMVGIDARWGSWFAYRAAIIVDSELPASPVEDHGHPCVDCTAKPCIGTCPASALDSGTMDMNACTASGSLKPRPARTAAWRDRPAL | not soluble
15 | MGSDKIHHHHHHMIIMTYYTFVKPFFIKAVTHLHVSSGTSVEEEVDLPFQRDELNYPTIFASSLKGAIKSFLLKEYSNAREIIYKVLGSDENPDEASLGSFLDAVLFAIPARSIGVSGLDEAWVYVTTYELLRKVKSLLESMNTLSATQFTSLLDAINNILQESKNLIISDNAASVILNEDFYVELSNIQNEYIQSLLGDMLIENSTYNQSNQNSQSQGNHLVKPLIVLKDSIGREVINRSLIRVRRIKIKRSSKTVEEGGLWSEEYVPVNSLFFSSFLARGSKDTAYFADCILRKTRYLILGGKETIGKGIVELRWLND | not soluble
16 | MGSDKIHHHHHHMIINKHVMRSTNEKQVLQQVINEGPISRSQISRNLSLNKVTVSDIYNQLLRTQFIKEIGCGVSTKNGGRKPVMAELNVNYGFVASIDMTADAVKLMYSRLNGKILHFQSFKTSDMTLTDVIDLIEDQLRNVDDYGTIHGLMGVAIALDGIIYENKILKTPIKGLTHFDLAKYLRDKLRIPVVLEKKANLTAVFERDFHDNEIFDNVVSVVVRDQIHAGIVADSRLYSGHEGEAGEVGTALLEDRHVEDHLASVNDYASEKALWARLKAIKHVERLDLTTVKHDYINHDPEVTKVFDDFVYYLSKVIANVSTAFAPDVVVLNTTVLEILPQLLTNVRESTAKLTSPSRQVPIIATKNVQSAALLGGASVIIHQALGLESLKMQFS | not soluble
17 | MGSDKIHHHHHHMIIRKICTTLPVILPEPETIMTVTRPRAERGAFPPGTEHYGRSLLGAPLIWFPAPAASRESGLILAGTHGDENSSVVTLSCALRTLTPSLRRHHVVLCVNPDGCQLGLRANANGVDLNRNFPAANWKEGETVYRWNSAAEERDVVLLTGDKPGSEPETQALCQLIHRIQPAWVVSFHDPLACIEDPRHSELGEWLAQAFELPLVTSVGYETPGSFGSWCADLNLHCITAEFPPISSDEASEKYLFAMANLLRWHPKDAIRPS | not soluble
18 | MGSDKIHHHHHHMIIVAGTPGAGKTSVMTHTIKQLLNKGNKPAVVKIDCLYTDDDTRYGKLKIPTLVGLSKDMCPDHFAIYNLEEMAEWAEKEGVDTLIIETAGLCHRCAPYTKNSLGICVIDATSGPNTPRKVGPFLTSADVVAITKGDIISQAEREVFRERVLEMNPKCTIYDVNGLSGQGCAEISEEIMEAKDIVDLENEELRHNAPLCVCTLCVGETKVAKKHHRGVLRRIDGFTKYVGE | not soluble
19 | MGSDKIHHHHHHMIKGIGTNVDTRRVNGSIKRLVSELEFFKSIGFDYVEIPAAGLDVIARGRIIRKRLERVKELLSNYNFRYTVHAPDVINLKIKTNPWHYRVMEATIEFAGEINAEVVVYHYGEVDHSIDVPERVQRKAEIVALRELADLAKEKGVVIGVENVGHPVSEVLKLVRAVNHPNVKLVIDVGHLFIVSNYTGIDFYDELKKGLPYAVELHLSDNFGESPQTYQKIPDVEAFRFVYGIGDLHLPIGEGDIPYNKVFRIIRESGFDGIVILEINSMDRFADEYADSLNLLRKRLILAADNNKTKKRRKVK | not soluble
